Experimental data published in publication PMC314469, “Protein Interaction Networks by Proteome Peptide Scanning” (PLoS Biology, 2004).

Key:
[1] = molecular target: amphyphisin SH3 (AMPH_HUMAN) (UniProt P49418); assay: SPOT array
[2] = molecular target: endophilin SH3 (SH3G2_HUMAN) (UniProt Q99962); assay: SPOT array

normalised SPOT signal, Boehringer light units (BLU); mean over the file's lines of this peptide [1]: 245
normalised SPOT signal, Boehringer light units (BLU); mean over the file's lines of this peptide [2]: 269
Substance: P46781 11-24
